Data: patent US6838433B2, “IL-6 antagonist peptides” (Applied Research Systems ARS Holding N.V., priority 1998, dated 2005)

Target: T1, gp130-ICD (Homo sapiens, UniProt P40189)
T1 construct: in order to isolate the intracellular portion of human gp130; expressed in transfected cells; host or cells: Saccharomyces cerevisiae strain CG-1945; cDNA obtained by RT-PCR from HepG2 cells and cloned into pGADGH (also pAS2-1)
T1 sequence (P40189 642-918 limits assumed): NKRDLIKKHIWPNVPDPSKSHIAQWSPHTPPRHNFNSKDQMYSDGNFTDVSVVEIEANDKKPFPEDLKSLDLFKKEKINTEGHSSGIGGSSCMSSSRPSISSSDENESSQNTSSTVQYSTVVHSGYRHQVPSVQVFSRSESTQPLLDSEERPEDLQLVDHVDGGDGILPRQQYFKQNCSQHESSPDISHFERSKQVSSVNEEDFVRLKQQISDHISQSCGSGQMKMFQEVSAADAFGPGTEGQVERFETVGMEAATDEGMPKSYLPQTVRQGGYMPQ
Assay: Liquid β-galactosidase (LacZ) assay in yeast two-hybrid system
Assay type: cell-based
Conditions: combination of clone E and gp130-ICD in yeast cells; three independent experiments
Excerpt: We have also performed liquid β-galactosidase assays to quantify transcriptional activity: as shown in the FIG. 5, in the presence of gp130-ICD/GAL4AD the fusion protein clone E/GAL4BD was able to produce a transcriptional activity of lacZ gene about 2 to 3 fold higher than in the absence of gp130-ICD/GAL4AD, thus confirming the interaction detected after the first selection.
Liquid β-Galactosidase Assay
We prepared 5-ml overnight culture in liquid SD selection medium appropriate for plasmids.
We transferred 2 ml of the culture to 8 ml of YPD and incubate at 30° C. for 3-5 hours until the cells are in the mid-log phase (O.D.600=0.5-0.8).
The culture was centrifuged at 14,000 rpm for 30 seconds: in the next step, we remove the supernatants, wash the cells with a volume of Z-buffer and resuspend the pellet in 900 μl of Z buffer.
Immediately, two or more freeze/thaw cycles were performed, placing the tubes in liquid nitrogen and in a 37° C. water bath for 0.5-1 minute. […]
The reaction was stopped by adding 0.4 ml of 1 M Na2CO3: we recorded the time needed to obtain the results and O.D.420 of the samples.
β-galactosidase units were calculated by this formula: β-galactosidase units=1,000×O.D.420/(t×V×O.D.600) […]

- β-galactosidase (LacZ) activity in liquid assay: about 3 units/ml
Substance: Clone E: peptide isolated by THS, homology group II, SEQ ID NO:6; homology with JAK1 JH4 domain (WGDNEWWRSEPHKMEL)
